Patent US20080118487A1
Each block holds one binder with its values, some of them ahead of it. Where no end group is shown, it is not given here.

Experiments:
[1] = molecular target: T1, recombinant bovine mature myostatin (bovine) (UniProt O18836); experiment: cell-based or functional assay
T1 sequence (looked up): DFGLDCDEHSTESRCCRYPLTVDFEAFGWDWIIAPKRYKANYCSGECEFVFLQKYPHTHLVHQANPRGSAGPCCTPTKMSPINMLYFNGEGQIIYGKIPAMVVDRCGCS

[2] = molecular target: T2, recombinant myostatin (Example 4); experiment: cell-based or functional assay
T2 sequence (O14793 267-375, species assumed, looked up): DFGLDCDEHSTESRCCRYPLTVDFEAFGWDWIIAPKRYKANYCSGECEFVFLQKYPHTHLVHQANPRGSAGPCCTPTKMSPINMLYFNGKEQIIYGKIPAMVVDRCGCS

proliferation of primary human myoblasts inhibited by myostatin (molar ratio rhMSV38 to myostatin) [1]: 10 | restoration of proliferation of human primary myoblasts inhibited by myostatin (methylene blue assay) (molar ratio rhMSV38 to myostatin) [1]: 1
B1: recombinant human MSV38 (rhMSV38) (peptide, not shown: small tags and cut ends)
chain: VHFPTPPNEEWIFFNVRRIIFLEVGFQFCSILGETALS
modifications: also: 36-aa N-terminal pET100/D-TOPO tag (enterokinase site, Xpress epitope, His), letters not shown

rescue of myostatin inhibited myoblast proliferation (C2C12, methylene blue assay) (molar ratio roMSV47 to myostatin) [1]: 1 | restoring proliferation of C2C12 myoblasts inhibited by myostatin (molar ratio roMSV47 to myostatin) [1]: 10
B2: recombinant ovine MSV47 (roMSV47) (peptide, not shown: small tags and cut ends)
chain: IIFLEVYIQFCSILGEAVFKRQSKSIHFCQNFKIIACLCNTAAFRMK
modifications: ends and bridges not checked; also: 36-aa N-terminal pET100/D-TOPO tag (enterokinase site, Xpress epitope, His), letters not shown

rescue of myostatin inhibited myoblast proliferation (C2C12, methylene blue assay) (molar ratio roMSV65 to myostatin) [2]: 20
B3: recombinant ovine myostatin splice variant 65 (roMSV65) (peptide, not shown: small tags and cut ends)
chain: VHFYTPPYGQWIFHKERKIIFLEVYIQFCSILGEAVFKRQSKSIHFCQNFKIIACLCNTAAFRMK
